{"source": "patent US20210155689A1", "about": "(SHANGHAI PHARMAEXPLORER, published 2021)", "binders": {"B1": {"name": "105F1E10 mouse-human chimeric antibody (antibody, V domains shown)", "VH": "EVQLQQSGPELVKPGASVKMSCRASGYTFTDFKMHWMKQSHGKSLEWIGYIAPNNGGTAYNQKFRGKATLTVNESSNTAYMELRSLTSEDSAVYYCVDWDDVDYWGQGTTLTVSS", "VL": "DIKMTQSPSSMYASLGERVTITCKASQDINSYLSWFQQKSGKSPKTLIYRANRLVDGVPSRFSGSGSGQDYSLTISSLEYEDMGIYYCLQYVEFPLTFGAGTKLELK", "notes": "also called mAb009-105F1E10"}, "B2": {"name": "405B8H3 mouse-human chimeric antibody (antibody, V domains shown)", "VH": "QVQLQQSGAELVRPGASVTLSCKASGYTFTDYEMHWVKQTPVHGLEWIGATDPETGNSAYNQKFKGKAIMTADKSSSTAYMELRSLTSEDSAVYYCISTGWNDWGQGTSLTVSS", "VL": "B1 VL with S40P, N52D, V55L, E81G, V92D, L96Y, A100G, L106I", "notes": "also called mAb103-405B8H3"}, "B3": {"name": "409D4E10 mouse-human chimeric antibody (antibody, V domains shown)", "VH": "B2 VH with Y27N, G56D, S58T, M70L, A72T, S98T, T99S", "VL": "B1 VL with S40P, V55L, V92N, L96Y, A100G, L106I", "notes": "also called mAb112-409D4E10"}, "B4": {"name": "409B11E12 mouse-human chimeric antibody (antibody, V domains shown)", "VH": "B2 VH with P41T, G56S, N57Y, M70L, S98A", "VL": "B1 VL with I2L, S40P, V55L, V92D, L96Y, A100G, L106I", "notes": "also called mAb104-409B11E12"}}, "target": "T1, monkey LAG-3 on cells (HEK293-cLAG-3 stable cell line) (monkey, UniProt P18627 24-525 (human entry))", "T1 construct": "Full-length monkey (Chinese monkey) LAG-3 gene expressed on HEK293 cells", "T1 chain": "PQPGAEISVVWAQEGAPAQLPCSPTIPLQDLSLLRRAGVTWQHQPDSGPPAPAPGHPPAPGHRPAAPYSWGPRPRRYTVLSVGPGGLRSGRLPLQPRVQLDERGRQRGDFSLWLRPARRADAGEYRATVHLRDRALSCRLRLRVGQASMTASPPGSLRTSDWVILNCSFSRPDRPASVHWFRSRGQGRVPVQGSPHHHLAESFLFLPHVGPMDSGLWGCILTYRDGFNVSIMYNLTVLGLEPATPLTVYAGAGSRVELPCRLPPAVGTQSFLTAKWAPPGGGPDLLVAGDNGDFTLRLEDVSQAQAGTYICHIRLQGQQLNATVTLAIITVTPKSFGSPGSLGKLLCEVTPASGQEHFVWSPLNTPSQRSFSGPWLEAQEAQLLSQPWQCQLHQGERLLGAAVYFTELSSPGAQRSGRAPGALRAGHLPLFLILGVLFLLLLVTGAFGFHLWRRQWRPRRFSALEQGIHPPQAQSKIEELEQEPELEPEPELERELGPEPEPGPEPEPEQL", "assay": "FACS, HEK293-cLAG-3, antibody 0.064 nM", "from_the_text": "The pIRES plasmid with the monkey-derived full-length gene was transfected into the HEK293 cell line to construct a HEK293 stable cell line containing monkey LAG-3 (herein referred to as HEK293-cLAG-3 stable cell line). The HEK293-hLAG-3 stable cell line and HEK293-cLAG-3 stable cell line were expanded in a T-75 cell culture flask to a 90% confluence. The medium was aspirated, and the cells were washed with HBSS (Hanks' Balanced Salt Solution) 1-2 times, then treated with a enzyme-free cell dissociation fluid (Versene solution: Life technology) and the cells were collected. The cells were washed with HBSS buffer for 1-2 times. After counted, the cells were diluted with HBSS to 1-2×10⁶ cells per ml, added with 1% goat serum blocking solution, incubated on ice for 20-30 minutes, and then washed with HBSS for 2 times by centrifugation. The collected cells were suspended in the FACS buffer (HBSS+1% BSA) to 2×10⁶ cells/ml, added as 100 microliters per well to a 96-well FACS reaction plate, added with 100 microliters per well of the antibody sample to be tested, incubated on ice for 1-2 hours. The plate was washed twice with the FACS buffer by centrifugation, added with 100 microliters of fluorescent (Alexa 488)-labeled secondary antibodies per well, and incubated on ice for 0.5-1.0 hours. The plate was washed 2-3 times with FACS buffer by centrifugation, added with 100 μl fixative solution (4% Paraformaldehyde) per well to suspend the cells. 5-10 minutes later, it was washed 1-2 times with FACS buffer by centrifugation. The cells were suspended with 100 microliters of FACS buffer, FACS (FACSCalibur, BD) was used for detection and the results were analyzed.", "note": "Substitutions are numbered along the chain they refer to."}
{"binder": "B1", "values": [{"measurement": "Mean fluorescence intensity", "value": 3.54}]}
{"binder": "B2", "values": [{"measurement": "Mean fluorescence intensity", "value": 4.8}]}
{"binder": "B3", "values": [{"measurement": "Mean fluorescence intensity", "value": 4.42}]}
{"binder": "B4", "values": [{"measurement": "Mean fluorescence intensity", "value": 4.95}]}
